The DeepSol protein solubility set

Assay: soluble on expression in E. coli; label from the status in PepcDB or PDB records

Sequence | soluble on expression in E. coli
MVEIVGHRAFKARYPENTLLAFEKAYAAGADVIETDLQMTSDGMVVVNHDSDTGRMWDKNLVIGESTWEEVKRLRCKEDGSLAMMTLKEILTWAVCHPGAKLMLDIKFTNEKIIMIKTFVIMLEVKNDLKFWQERITWGLWLLDWYDFGIETGVLKDFKVIVISLSLDIASQFVKRSLTLNDPHYKLFGISVHFVSSWTSQFRLRLLPVLMKNDIKVYLWTVNKPIDFKYLCELPIHGAITDDPIKARKLCDGHTVAKKPTAEKKFVAPSLASVDGLRFHAFIKVYNILCTLLYSKWVHIKLCGWSIAYVIFLFLRTIHFL | soluble
MKWLRLQDLPTDNSFAALPAEFYTRLQPRPPAAPRLLHANAEAAALIGLDPAEFSTQAFLDVFSGHAPLPGGDTLAAVYSGHQFGVWAGQLGEVRGPAGGWELQLKGAGMTPYSRMGDGRAVLRSSVREYLASEAMHGLGIPTTRSLALVVSDDPVMRETVETAAVVTRMAPSFVRFGSFEHWSARRQPEQLRVLADYVIDRFYPECRVAGAGRLDGEHGEILGLLAAVTRRTALLMADWQAVGFCHGVMNTDNMSILGLTLDYGPYGFMDTFQLGHICNHSDSEGRYAWNRQPSVGLWNLYRLASSLHTLAPDPEALRAVLDGYEAVFTQAFHGRMAGKLGLPQFLPEDETLLDDLLQLMHQQGADFTLAFRRLGEAVRGQRQPFEDSFIDRAAAGAWYDRLAARHASDGRAAQARAAAMDEVNPLYVLRNHLAEQAIRAAARGDAGEIDILLKLLRNPYKHQPGYDAYAGLAPDWAAGLEVSCSSLEHHHHHH | not soluble
MAYKHILIAVDLSPESKVLVEKAVSMARPYNAKISLIHVDVNYSDLYTGLIDVNLGDMQKRISEETHHALTELSTNAGYPITETLSGSGDLGQVLVDAIKKYDMDLVVCGHHQDFWSKLMSSARQLINTVHVDMLIVPLRDEEE | not soluble
QGTRVTLKVDKEYQQALSRGHSAGHLAYLALNKVLAASYWRKDADRKDPHGNYDFNSYAQEASFVTPDKCLDTYRLGKTLRKRGLNSAEMLSDLEKIEGQVNAQLKFWLERDAAIIMDCHGDNLTDSRYWKCDLGEGELAVIPCGGTHAEHLSDFGSIHVKLVEMDSQTIEMHTDVIACFSN | not soluble
MFLSTKFLPMSDTVIRIENLSKKYIIAHQQQERYTVLRDVIANQIKSLGSLINPKAKTENPNCEEFWALKDVSFEIKQGDRVGIIGRNGAGKSTLLKILSRITEPTHGCINIKGRIASLLEVGTGFHPELTGRENIYLNGAILGMSKAEIKRKFDEIVAFSEVEKFLDTPVKRYSSGMYVRLAFAVAAHLEPEILIVDEVLAVGDAAFQQKCLGKMEDVGKEGRTVLFVSHNMATVKQLCNCAFLLYQGNLIFQGNPHEAISQYMQKSTQGKHFHQANIYHHIKGDFRAEIEKITINNLDNSEIALSIFEKVKISIKYKINKPIDELDFFVLIYNLEDGEVQTSLFQRDSLSNIQPLSNYGTISVEFTNPLMPGKYTISAGIFDKNKRFVDWVELAESFYVESAFINGNKYDQRLGKISIQGTWYAE | not soluble
MEFPDLGAHCSEPSCQRLDFLPLKCDACSGIFCADHVAYAQHHCGSAYQKDIQVPVCPLCNVPVPVARGEPPDRAVGEHIDRDCRSDPAQQKRKIFTNKCERSGCRQREMMKLTCDRCGRNFCIKHRHPLDHECSGEGHQTSRAGLAAISRAQGLASTSTAPSPSRTLPSSSSSSRATPQLPTRTASPVIALQNGLSEDEALQRALELSLAEAKPQVLSSQEEDDLALAQALSASEAEYQQQQAQSRSLKPSNCSLC | soluble
MGSDKIHHHHHHMPSSVCGDPMMCQNCKKSVPNAIFHVYHRRGFHYPAQKCEENFILFLIKGEMLVNSREYAGTMLKAGEFMLQPISSKIEMLAMTDVECIYYQFNQPELFCDIRYNRIMKETDPPLIPSPLPIIPELQHFLESARTYLSEKKICRDLLSLKRKELAFILGYFYSDYDLASLVHPLSKYASSFECFVYQNYKKVKTVEEFAKLGGYSQTTFRRIFDNVFHEPVYEWMLSRRKEEIIYELQNTEATISEICYKFGFESLPHFSNFCKKSFGTSPRSIRLKRSSE | not soluble
SQPKLALKQLAKQGDECLKKGAWVLIFPEGTRIPVGQMGKFSRGGTALAVNAGLPVLPIAHNAGQYWPKAGWAKYPGTIQVVIGPAMHAEGEGPRAIAELNQRAEAWVSETMAEISPIQQRVSHPEPSVVS | not soluble
MNKRCEEVLRRYFAEVPFIIEKACELAESMLGEGSHGLSHTIRVLDLALQIGRVEGANLEVLALAAILHDIARPLEDKGRIKDHAQEGARIVRSFLSKLRYPHVDEVAHAIEAHRFSTNIEPRTLEAKILSDADKIDALGAIGIARVFMYAGEKGRSIEDSIKHFEEKILRLKDLMYTETGKRIAQERHKIVEEFVNILKKELIAAALEHHHHHH | soluble
MGSDKIHHHHHHIRSATACSSTDNVVSMKLTEHIGRLTVMGLMLPKHRPFFKERMGMNVQKEGVGEPTMAFTPTQRLHLGAEAEVWKGEWFGKAAVRKQRRPRSWRHPNLDHRLGVRRMISEARLLIRTRKAGLSVPSVWDLDYEGGQLIIEHLEGRPLIDVLNDPATEKEVAKTTLHRVGHSVRRLHREATTHGDLSSNNILIEGEHVHLIDFGLASIEYDVERFGIDLHVLDEILGASHPQWEGAIDWVIEGYLSAEEELGPAPALQGGSVPSAKEVHTRLEDIRTRVRYH | not soluble
MPRALNDRSSALTAQNLIALPERFGCPVWAYDGDIIAERINQLRHFDVIRFAQKACSNIHILRLMREQGVKVDSVSLGEIERALHAGYQPGQEPAEIVFTADLLDQATLLRVTELNIPVNAGSIDMLDQLGQQAPGHPVWLRVNPGFGHGHSQKTNTGGENSKHGIWHEELPRALKKIEHYGLTLVGIHMHIGSGVDYQHLEQVCDAMVQQVITLGHDISAISAGGGLSIPYQFGDDVIDTEHYYGLWNSARERIAAHLGHPVSLEIEPGRFLVAESGVLIAQVRAVKDMGRRHYVLVDAGFNDLMRPAMYGSYHHISLLPADGRDLTSAPLIDTVVAGPLCESGDVFTQQEGGGVETLALPAAVIGDYLVFHDTGAYGASMSSNYNSRPLLPEVLFEKGQPRLIRRRQTIEELIDLERV | not soluble
MNANIMLNEDITPIGSDYDTVRGVIELLTLDYREQPSLEAIAARLGQSPTQLQKTFTRWAGLSPKAFLQAVTLDHAKRLLREEDLPLLETSIEVGMSGPGRLHDLFVTHEAMSPGEWKAKGGGLTIRYGFHASPFGLALVMITDRGLAGCAFADPGDERACFEDMAGRWPNADYVEDREATAPYAARIFEPAMWTADKPLRVVLLGTDFQVRVWKSLLKIPMGRAVTYSNIACDIGQPTASRAVGAAVGANPVSFVVPCHRAVGKSGALTGYHWGLTRKRAMLGWETGKALEHHHHHH | not soluble
AKQQKHFVLVHGGCLGAWIWYKLKPLLESAGHKVTAVDLSAAGINPRRLDEIHTFRDYSEPLMEVMASIPPDEKVVLLGHSFGGMSLGLAMETYPEKISVAVFMSAMMPDPNHSLTYPFEKYNEKCPADMMLDSQFSTYGNPENPGMSMILGPQFMALKMFQNCSVEDLELAKMLTRPGSLFFQDLAKAKKFSTERYGSVKRAYIFCNEDKSFPVEFQKWFVESVGADKVKEIKEADAMGMLSQPREVCKCLLDISDS | soluble
MKQSIVSLAQVIRSKNAGPYELVLDILFKTKENYERVKSSGQLTPELIARLYHVEPDFIHRIVWFDPSNAVKIVMPRDIISGNVGDNDVYGAQQHAPLLNMSFDL | soluble
MAIPKLQSYALPTALDIPTNKVNWAFEPERAALLIHDMQDYFVSFWGRNCPMMDQVIANIAALRQYCKEHHIPVYYTAQPKEQSDEDRALLNDMWGPGLTRSPEQQKVVEALTPDEADTVLVKWRYSAFHRSPLEQMLKDTGRNQLIITGVYAHIGCMTTATDAFMRDIKPFMVADALADFSREEHLMALNYVAGRSGRVVMTESLLPTPVPASKAALRALILPLLDETDEPLDDENLIDYGLDSVRMMGLAARWRKVHGDIDFVMLAKNPTIDAWWALLSRGVE | not soluble
MNLKSFTRKVSSTRDHRLLAEAIFDQLENLFSPHAIAIFEDPLTNPRCSVSFSRGELYPIQKYPEIFWDWACQFDTSESIIPLAINTCNWNHTQDLGGDSYILMLDNTPIKRTYLLIQSVQARTAHNIYEESYDAMQLAAARWQCIRAEKNASQEMRHRDIREAQYVDEISQRERFIENMKLVQQVALEISNPDSLKDLYYKAVEALRERLGFDRTTLMLLDMKKRSFSGTYGTDESGITIDEFHTQYDLHQLSEEYIAALSSLESNLVIIEDAPIYTAGKVVGQGWNAMLILRDGNEPFGWFALDNFIHRKPITAYQKQMLDSFGSLFSQIYIRKRQEQNVRMLHSSMVELSRCTTVSDVCKSAVTFAIKNLGIDRMAVFLTDENCSYMQGTWGTDIQGNVVDESYFFGETQNFSLINLARAVPSEVAFEESVPIYHDCNIVG | not soluble
MKFIQNLTKIHQSTSHMAHAHRSDSAVDSQVASTLREDTVARFSMLMKHPRSLARPTVTWRPPSLKLVGLHSTISPQPHLVASISRRRIGPSVKARLKGFGVRQQPAYLMSVRISDSKSNNVSFEHAEQWMLQLVGPQYAECIHMITDHGQCPVFVWIVGGDFQPLPSPASMFQTFQAAA | not soluble
MKKIKLGFAPTRRSIFSAPDAVKYRGLTAQRLKELGVDFVDITDINEEGLLYDDKDVDKIVEKFKKEGVDGLMLPHCNFGTEYVCARLAKKLDVPVLLWGPLDERPEPNGVRLRDTQCGLFATGKVLRRFQIPFTYLTNCRLNDPVFERGVKDFLAVCNVVKTFKNIRILQISTRPFDFWTTMCNEGELLEKFNIQLAPVPMTELTEEVKTVREDKEKMEQMIAYIKDTMVIKIKEEEVEMVAALALAMKSLVEKYGCQAAAIQCWNALQTEIGIMPCAANAILNEQGIPVVCETDIHGAVTALLAEAAGMDEKRGFFADWTIRHPDIENGELLQHCGPWPMSVAQEKPELTYPLAFEHPGSLTAEAKHGEVTLCRFDGDNGEYSLLLGNAKGVDGPKGMGTYLWVEVENIKRLEAKIVEGPYIHHCVGIHKNVVPVLYEACKYIGVKPDLYDPIEEDVKAYLRGE | not soluble
MSLESRPLHVVLGNEACDLDSTVSALALAFYLAKTTEAEEVFVPVLNIKRSELPLRGDIVFFLQKVHIPESILIFRDEIDLHALYQAGQLTLILVDHHILSKSDTALEEAVAEVLDHRPIEPKHCPPCHVSVELVGSCATLVTERILQGAPEILDRQTAALLHGTIILDCVNMDLKIGKATPKDSKYVEKLEALFPDLPKRNDIFDSLQKAKFDVSGLTTEQMLRKDQKTIYRQGVKVAISAIYMDLEAFLQRSNLLADLHAFCQAHSYDVLVAMTIFFNTHNEPVRQLAIFCPHVALQTTICEVLERSHSPPLKLTPASSTHPNLHAYLQGNTQVSRKKLLPLLQEALSAYFDSMKIPSGQPETADVSREQVDKELDRASNSLISGLSQDEGHHHHHH | not soluble
MGSDKIHHHHHHMADAETIRSYDQLAREQAAFQRHLQPTAIYRLVETFFHPGRPTIDIGSGSGRDVAWLNQHGYQAIGLEPSAGMIAEARAAYAGIEIRQGALPDLAGIADASFDNVLCVAVLMHLPAAELIGAVINLARILRPGGRLIVSYRTPPPEGERAHDGRLYTVIPPARLMLLLESSGLQILFSEDLPDPHRPSIRWFNMVAEKSDRDVSRGLERVGSVLAHDRKTATYKLALLRALCIIARNAFNLVEWSSDVVYVLLRAIATQWLIFYWPLLTSSEFIAQIRGEHPLSPKPIAFRPAITSLAKQLGGAAGLYNVLRILEEDPHRYDDILKLIANTIRKGPVTYSGSIHSPIFSYRPGKSDTFGWVAVPIDIWLDICRFNHWIEDSIVLRWAYLTDELNRTADPGRYLSLLVAKPLHERDTQEVRQALNRSPELFCVWTGQRLGHGYEVDHVIPYSVWGNNDLWNLLPAHPRINQTKRDALPARSILLARREAIIDYWQRYAQIDVFQPRFAVQIHRALGCNLRHADWPKLAFAGLEEVVERTAIVRGLPRWSP | not soluble
